Laboratory results as given in publication PMC6047744.

Target: Polθ-helicase domain (human, UniProt O75417 1-894)
Assay: EMSA

Chain of Polθ-helicase domain (O75417 1-894): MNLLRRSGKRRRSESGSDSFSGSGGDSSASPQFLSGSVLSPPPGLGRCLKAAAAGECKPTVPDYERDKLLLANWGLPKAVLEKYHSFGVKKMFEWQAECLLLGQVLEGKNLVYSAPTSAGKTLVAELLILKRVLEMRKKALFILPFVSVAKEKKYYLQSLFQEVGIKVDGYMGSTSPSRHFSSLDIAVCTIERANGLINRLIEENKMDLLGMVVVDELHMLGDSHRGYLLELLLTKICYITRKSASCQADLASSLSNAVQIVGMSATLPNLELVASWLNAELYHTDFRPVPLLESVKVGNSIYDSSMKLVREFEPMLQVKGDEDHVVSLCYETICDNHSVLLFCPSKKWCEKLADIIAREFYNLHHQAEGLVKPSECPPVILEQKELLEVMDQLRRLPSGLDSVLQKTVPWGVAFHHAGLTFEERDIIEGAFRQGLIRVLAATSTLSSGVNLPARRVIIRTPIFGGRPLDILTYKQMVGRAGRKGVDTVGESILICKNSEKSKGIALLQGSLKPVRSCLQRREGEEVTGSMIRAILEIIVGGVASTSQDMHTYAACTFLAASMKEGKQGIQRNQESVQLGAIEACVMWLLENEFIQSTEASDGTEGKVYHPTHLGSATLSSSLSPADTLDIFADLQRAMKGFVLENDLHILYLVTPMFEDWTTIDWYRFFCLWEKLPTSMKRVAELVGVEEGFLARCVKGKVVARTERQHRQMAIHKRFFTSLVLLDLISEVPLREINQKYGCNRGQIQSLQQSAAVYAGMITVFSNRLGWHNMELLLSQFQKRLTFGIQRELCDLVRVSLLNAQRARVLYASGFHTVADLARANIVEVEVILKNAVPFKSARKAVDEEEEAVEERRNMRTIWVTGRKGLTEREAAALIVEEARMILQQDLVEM

TTTTATATTTTGTTTTGTGTTATTTTTTTCTTTAACAT (ssDNA) [SM76]: binds.
